Common to all, as to conditions: both partners purified
Experiment [1] concerns the target T1, ROD–Zwilch–ZW10 (RZZ) complex (UniProt P50748 1-2209; Q9H900 1-591; O43264 1-779).
T1 construct: ROD; Zwilch; ZW10; also called mCherry-RZZ; copies: + +
Description: SEC; Superose 6 5/150; RZZ 2 µM, pre-farnesylated mCh-Spindly construct 6 µM.

The target of experiment [2] is T2, mCherry-tagged full-length Spindly (^mChSpindly^FL) (human, UniProt Q96EA4 1-605).
T2 construct: also called ^mChSpindly^WT; Spindly^WT; source: E. coli BL21 CodonPlus, purified (HisTrap, Resource Q, Superdex 200); not shown: mCherry, N-terminal, kept
T2 sequence (looked up): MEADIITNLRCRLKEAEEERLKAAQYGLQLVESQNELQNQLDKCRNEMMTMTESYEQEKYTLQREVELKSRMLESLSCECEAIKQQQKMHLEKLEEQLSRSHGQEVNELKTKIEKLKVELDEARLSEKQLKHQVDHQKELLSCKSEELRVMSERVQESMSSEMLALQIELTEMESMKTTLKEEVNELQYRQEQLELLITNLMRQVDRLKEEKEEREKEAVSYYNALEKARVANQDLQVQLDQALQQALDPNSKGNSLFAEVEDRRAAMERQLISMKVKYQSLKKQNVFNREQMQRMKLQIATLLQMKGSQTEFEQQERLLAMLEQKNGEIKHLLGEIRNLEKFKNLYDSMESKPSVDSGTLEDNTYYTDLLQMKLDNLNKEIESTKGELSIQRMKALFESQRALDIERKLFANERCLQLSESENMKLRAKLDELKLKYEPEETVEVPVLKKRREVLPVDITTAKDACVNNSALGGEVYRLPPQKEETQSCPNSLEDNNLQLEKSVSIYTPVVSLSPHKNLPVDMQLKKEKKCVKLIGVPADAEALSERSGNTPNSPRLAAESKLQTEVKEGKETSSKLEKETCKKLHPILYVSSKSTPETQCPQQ
Description: pull-down; GST or GST-LIC2 bait 4 µM on glutathione beads, mCh-Spindly preys 8 µM, 4°C 1 h, Spindly buffer; eluted with glutathione; mCherry fluorescence of the gel band quantified against Spindly FL.

Experiment [3] concerns the target T3, ^mChSpindly^CC2* (R295E-K297E) (human, UniProt Q96EA4 1-605, R295E | K297E).
T3 construct: source: E. coli BL21 CodonPlus, purified (HisTrap, Resource Q, Superdex 200); not shown: mCherry, N-terminal, kept
T3 sequence (looked up): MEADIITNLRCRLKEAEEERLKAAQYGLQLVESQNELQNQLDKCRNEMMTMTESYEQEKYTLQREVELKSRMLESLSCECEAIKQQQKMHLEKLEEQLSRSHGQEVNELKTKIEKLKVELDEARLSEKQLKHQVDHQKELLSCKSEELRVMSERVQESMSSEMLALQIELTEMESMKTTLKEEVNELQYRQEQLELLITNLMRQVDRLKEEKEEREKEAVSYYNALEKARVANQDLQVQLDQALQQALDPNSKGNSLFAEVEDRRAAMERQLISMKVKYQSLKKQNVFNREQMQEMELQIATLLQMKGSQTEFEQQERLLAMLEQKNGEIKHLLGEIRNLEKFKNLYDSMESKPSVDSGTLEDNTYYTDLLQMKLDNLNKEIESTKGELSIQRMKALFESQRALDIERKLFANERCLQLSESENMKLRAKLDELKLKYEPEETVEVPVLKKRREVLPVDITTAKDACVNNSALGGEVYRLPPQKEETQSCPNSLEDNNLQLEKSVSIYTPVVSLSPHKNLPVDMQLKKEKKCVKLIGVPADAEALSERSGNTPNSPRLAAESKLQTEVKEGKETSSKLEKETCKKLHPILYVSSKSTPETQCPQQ
The description is as above.

Experiment [4] has as its target T4, ^mChSpindly^ΔRV (human, UniProt Q96EA4 1-605, ΔRV (residues R154–V155)).
T4 construct: also called ^mChSpindly^∆RV; source: E. coli BL21 CodonPlus, purified (HisTrap, Resource Q, Superdex 200); not shown: mCherry, N-terminal, kept
T4 sequence (looked up): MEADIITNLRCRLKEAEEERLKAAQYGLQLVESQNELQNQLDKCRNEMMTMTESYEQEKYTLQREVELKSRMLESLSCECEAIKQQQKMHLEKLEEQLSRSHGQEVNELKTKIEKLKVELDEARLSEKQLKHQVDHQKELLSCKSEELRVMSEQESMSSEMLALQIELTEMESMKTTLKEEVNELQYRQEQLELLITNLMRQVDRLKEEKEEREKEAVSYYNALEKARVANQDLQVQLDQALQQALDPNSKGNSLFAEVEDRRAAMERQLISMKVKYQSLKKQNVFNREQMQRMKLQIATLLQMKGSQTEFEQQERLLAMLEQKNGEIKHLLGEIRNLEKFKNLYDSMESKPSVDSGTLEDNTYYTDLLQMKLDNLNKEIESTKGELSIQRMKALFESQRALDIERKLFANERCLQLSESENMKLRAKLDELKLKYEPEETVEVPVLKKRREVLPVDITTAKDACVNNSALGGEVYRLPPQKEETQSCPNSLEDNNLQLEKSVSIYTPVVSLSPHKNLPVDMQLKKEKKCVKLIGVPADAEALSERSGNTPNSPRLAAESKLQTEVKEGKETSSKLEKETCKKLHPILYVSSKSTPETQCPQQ
Described as above.

T1 sequence (P50748 whole entry, chain 1 of 3): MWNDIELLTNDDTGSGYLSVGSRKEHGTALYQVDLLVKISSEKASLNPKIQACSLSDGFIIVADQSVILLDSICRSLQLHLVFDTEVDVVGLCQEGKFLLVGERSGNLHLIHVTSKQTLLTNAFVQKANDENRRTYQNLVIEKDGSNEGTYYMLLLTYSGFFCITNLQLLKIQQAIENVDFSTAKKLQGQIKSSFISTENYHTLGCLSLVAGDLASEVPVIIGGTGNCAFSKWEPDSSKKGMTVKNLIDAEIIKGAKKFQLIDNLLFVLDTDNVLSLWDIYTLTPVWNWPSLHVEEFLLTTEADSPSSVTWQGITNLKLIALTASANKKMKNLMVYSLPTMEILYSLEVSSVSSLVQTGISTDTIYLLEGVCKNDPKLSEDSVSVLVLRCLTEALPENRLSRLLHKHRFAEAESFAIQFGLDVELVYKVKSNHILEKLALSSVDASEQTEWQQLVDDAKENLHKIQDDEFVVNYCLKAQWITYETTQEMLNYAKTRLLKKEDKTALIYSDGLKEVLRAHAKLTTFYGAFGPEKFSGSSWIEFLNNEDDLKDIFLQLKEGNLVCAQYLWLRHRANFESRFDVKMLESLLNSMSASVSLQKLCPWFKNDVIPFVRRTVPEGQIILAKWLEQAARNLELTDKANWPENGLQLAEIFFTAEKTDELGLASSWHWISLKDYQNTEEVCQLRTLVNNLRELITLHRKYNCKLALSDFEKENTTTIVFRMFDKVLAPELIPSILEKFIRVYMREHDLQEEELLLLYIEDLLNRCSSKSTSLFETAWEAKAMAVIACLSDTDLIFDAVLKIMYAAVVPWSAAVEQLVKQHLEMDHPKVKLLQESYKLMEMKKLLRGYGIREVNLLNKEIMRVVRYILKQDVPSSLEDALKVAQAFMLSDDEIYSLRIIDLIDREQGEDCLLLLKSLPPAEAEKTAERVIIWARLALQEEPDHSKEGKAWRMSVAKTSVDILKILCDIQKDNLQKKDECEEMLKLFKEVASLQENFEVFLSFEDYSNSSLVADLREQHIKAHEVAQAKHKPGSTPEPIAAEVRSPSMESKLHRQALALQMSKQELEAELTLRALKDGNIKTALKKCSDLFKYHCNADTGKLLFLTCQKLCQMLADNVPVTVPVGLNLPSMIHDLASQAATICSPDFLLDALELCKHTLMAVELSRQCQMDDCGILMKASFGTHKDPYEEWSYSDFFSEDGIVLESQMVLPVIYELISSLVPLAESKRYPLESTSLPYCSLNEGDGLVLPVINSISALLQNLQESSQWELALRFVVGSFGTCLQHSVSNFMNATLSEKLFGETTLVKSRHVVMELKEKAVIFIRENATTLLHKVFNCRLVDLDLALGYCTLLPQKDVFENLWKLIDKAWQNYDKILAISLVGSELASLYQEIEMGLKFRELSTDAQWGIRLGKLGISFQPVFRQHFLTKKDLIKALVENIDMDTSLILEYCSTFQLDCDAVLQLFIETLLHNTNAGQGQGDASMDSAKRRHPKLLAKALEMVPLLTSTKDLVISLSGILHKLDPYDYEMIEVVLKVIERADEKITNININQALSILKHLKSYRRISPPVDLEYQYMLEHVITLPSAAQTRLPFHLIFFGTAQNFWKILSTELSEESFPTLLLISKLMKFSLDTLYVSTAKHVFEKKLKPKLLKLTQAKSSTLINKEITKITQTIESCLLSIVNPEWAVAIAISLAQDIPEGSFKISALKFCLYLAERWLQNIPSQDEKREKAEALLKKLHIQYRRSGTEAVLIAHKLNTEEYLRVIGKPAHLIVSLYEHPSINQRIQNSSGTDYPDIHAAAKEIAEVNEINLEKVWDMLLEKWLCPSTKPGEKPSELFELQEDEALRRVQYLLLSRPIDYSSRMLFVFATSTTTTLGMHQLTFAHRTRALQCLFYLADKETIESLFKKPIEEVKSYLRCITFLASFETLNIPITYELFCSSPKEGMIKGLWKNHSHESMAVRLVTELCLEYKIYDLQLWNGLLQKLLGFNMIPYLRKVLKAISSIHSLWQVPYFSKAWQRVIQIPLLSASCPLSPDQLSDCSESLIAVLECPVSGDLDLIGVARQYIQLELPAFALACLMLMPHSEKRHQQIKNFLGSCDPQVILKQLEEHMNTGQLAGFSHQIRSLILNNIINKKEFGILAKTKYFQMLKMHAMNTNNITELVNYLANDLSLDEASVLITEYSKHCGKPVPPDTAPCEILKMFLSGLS
T1 sequence (Q9H900 whole entry, chain 2 of 3): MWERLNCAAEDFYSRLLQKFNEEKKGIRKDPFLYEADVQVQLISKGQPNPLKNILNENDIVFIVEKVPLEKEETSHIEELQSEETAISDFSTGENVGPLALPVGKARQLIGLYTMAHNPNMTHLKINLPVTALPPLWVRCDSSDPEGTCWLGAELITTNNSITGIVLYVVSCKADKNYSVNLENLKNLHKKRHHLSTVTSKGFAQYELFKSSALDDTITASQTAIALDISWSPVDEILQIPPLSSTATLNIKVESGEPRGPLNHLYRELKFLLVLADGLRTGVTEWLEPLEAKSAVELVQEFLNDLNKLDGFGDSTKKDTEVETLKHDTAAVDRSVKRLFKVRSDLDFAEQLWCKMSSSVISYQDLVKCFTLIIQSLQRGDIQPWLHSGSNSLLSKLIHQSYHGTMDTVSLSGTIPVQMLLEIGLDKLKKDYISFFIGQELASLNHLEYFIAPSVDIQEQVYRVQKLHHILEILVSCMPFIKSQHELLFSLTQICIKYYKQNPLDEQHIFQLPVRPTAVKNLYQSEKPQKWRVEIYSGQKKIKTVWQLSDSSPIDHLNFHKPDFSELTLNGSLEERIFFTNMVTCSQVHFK
T1 sequence (O43264 whole entry, chain 3 of 3): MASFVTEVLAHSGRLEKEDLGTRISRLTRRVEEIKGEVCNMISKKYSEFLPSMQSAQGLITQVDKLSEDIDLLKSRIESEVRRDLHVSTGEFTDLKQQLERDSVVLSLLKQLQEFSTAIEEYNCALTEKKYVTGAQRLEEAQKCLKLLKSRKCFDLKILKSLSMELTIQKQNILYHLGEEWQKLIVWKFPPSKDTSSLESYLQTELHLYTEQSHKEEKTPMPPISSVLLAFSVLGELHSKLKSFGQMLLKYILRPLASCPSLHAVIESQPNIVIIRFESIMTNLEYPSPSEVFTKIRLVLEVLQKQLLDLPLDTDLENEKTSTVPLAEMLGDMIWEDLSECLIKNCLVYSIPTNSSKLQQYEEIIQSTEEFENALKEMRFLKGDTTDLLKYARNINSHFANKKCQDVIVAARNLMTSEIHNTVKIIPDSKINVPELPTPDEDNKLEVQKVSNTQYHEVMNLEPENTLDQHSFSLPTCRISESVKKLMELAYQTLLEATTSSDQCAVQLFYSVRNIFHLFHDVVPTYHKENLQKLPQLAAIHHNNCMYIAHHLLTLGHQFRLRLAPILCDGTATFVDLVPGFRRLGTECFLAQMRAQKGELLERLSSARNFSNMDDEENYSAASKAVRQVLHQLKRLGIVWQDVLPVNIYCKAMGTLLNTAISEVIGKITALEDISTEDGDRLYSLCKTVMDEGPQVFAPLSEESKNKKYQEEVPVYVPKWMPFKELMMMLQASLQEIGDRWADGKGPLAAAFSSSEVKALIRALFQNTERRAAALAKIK

B1: pre-farnesylated ^mChSpindly^CC2* (natural protein, human, UniProt Q96EA4 1-605, looked up)
chain: MEADIITNLRCRLKEAEEERLKAAQYGLQLVESQNELQNQLDKCRNEMMTMTESYEQEKYTLQREVELKSRMLESLSCECEAIKQQQKMHLEKLEEQLSRSHGQEVNELKTKIEKLKVELDEARLSEKQLKHQVDHQKELLSCKSEELRVMSERVQESMSSEMLALQIELTEMESMKTTLKEEVNELQYRQEQLELLITNLMRQVDRLKEEKEEREKEAVSYYNALEKARVANQDLQVQLDQALQQALDPNSKGNSLFAEVEDRRAAMERQLISMKVKYQSLKKQNVFNREQMQEMELQIATLLQMKGSQTEFEQQERLLAMLEQKNGEIKHLLGEIRNLEKFKNLYDSMESKPSVDSGTLEDNTYYTDLLQMKLDNLNKEIESTKGELSIQRMKALFESQRALDIERKLFANERCLQLSESENMKLRAKLDELKLKYEPEETVEVPVLKKRREVLPVDITTAKDACVNNSALGGEVYRLPPQKEETQSCPNSLEDNNLQLEKSVSIYTPVVSLSPHKNLPVDMQLKKEKKCVKLIGVPADAEALSERSGNTPNSPRLAAESKLQTEVKEGKETSSKLEKETCKKLHPILYVSSKSTPETQCPQQ
modifications: farnesylated (residue not given)
notes: source: E. coli BL21 CodonPlus, purified; farnesylated in vitro with farnesyltransferase; not shown: mCherry, N-terminal, kept
Turning to B1, in experiment [1], the binding result is “binds”.

B2: GST-LIC2 (natural protein, human, UniProt O43237 1-492, looked up)
chain: MAPVGVEKKLLLGPNGPAVAAAGDLTSEEEEGQSLWSSILSEVSTRARSKLPSGKNILVFGEDGSGKTTLMTKLQGAEHGKKGRGLEYLYLSVHDEDRDDHTRCNVWILDGDLYHKGLLKFAVSAESLPETLVIFVADMSRPWTVMESLQKWASVLREHIDKMKIPPEKMRELERKFVKDFQDYMEPEEGCQGSPQRRGPLTSGSDEENVALPLGDNVLTHNLGIPVLVVCTKCDAVSVLEKEHDYRDEHLDFIQSHLRRFCLQYGAALIYTSVKEEKNLDLLYKYIVHKTYGFHFTTPALVVEKDAVFIPAGWDNEKKIAILHENFTTVKPEDAYEDFIVKPPVRKLVHDKELAAEDEQVFLMKQQSLLAKQPATPTRASESPARGPSGSPRTQGRGGPASVPSSSPGTSVKKPDPNIKNNAASEGVLASFFNSLLSKKTGSPGSPGAGGVQSTAKKSGQKTVLSNVQEELDRMTRKPDSMVTNSSTENEA
notes: Dynein light intermediate chain 2 (LIC2), human; GST is TEV-cleavable but was used as the handle on glutathione beads; also called GST-tagged LIC2; source: TnAO38 insect cells (baculovirus), purified (GSTrap, Superdex 200); not shown: GST, N-terminal, kept
For the molecule B2, the binding result in experiment [2], in experiment [3] and in experiment [4] was “binds” in each case.
